± gives the standard deviation of the averaged measurements.

One data set concerns hTERT-HMEC. The experiment in a line: percentage of EdU-negative (G0-arrested) nuclei per well, 72 h; higher = more G0 arrest. The following applies: reference: sequence is the full UniProt precursor, the tested protein was the secreted form or ectodomain.
Another data set concerns MCF7. The description is as above. The following applies: reference: sequence is the full UniProt precursor, the tested protein was the secreted form or ectodomain.
Where [1] appears, read: protein concentration 0.0122857 µM.
The mark [2] stands for this setting: protein concentration 0.122857 µM.
[3] abbreviates: protein concentration 0.0257143 µM.
Setting [4] is: protein concentration 0.257143 µM.
[5] abbreviates: protein concentration 0.0225 µM.
Where [6] appears, read: protein concentration 0.03125 µM.
Setting [7] is: protein concentration 0.3125 µM.
Setting [8] is: protein concentration 0.0182857 µM.
[9] abbreviates: protein concentration 0.182857 µM.
Where [10] appears, read: protein concentration 0.0155 µM.
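Also: secreted proteins added to cultured cells, EdU pulse at the end, nuclei found by Hoechst imaging, EdU status from nuclear versus surrounding ring intensity ratio, PBS as neutral control.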

For the substance “MKILILGIFLFLCSTPAWAKEKHYYIGIIETTWDYASDHGEKKLISVDTEHSNIYLQNGPDRIGRLYKKALYLQYTDETFRTTIEKPVWLGFLGPIIKAETGDKVYVHLKNLASRPYTFHSHGITYYKEHEGAIYPDNTTDFQRADDKVYPGEQYTYMLLATEEQSPGEGDGNCVTRIYHSHIDAPKDIASGLIGPLIICKKDSLDKEKEKHIDREFVVMFSVVDENFSWYLEDNIKTYCSEPEKVDKDNEDFQESNRMYSVNGYTFGSLPGLSMCAEDRVKWYLFGMGNEVDVHAAFFHGQALTNKNYRIDTINLFPATLFDAYMVAQNPGEWMLSCQNLNHLKAGLQAFFQVQECNKSSSKDNIRGKHVRHYYIAAEEIIWNYAPSGIDIFTKENLTAPGSDSAVFFEQGTTRIGGSYKKLVYREYTDASFTNRKERGPEEEHLGILGPVIWAEVGDTIRVTFHNKGAYPLSIEPIGVRFNKNNEGTYYSPNYNPQSRSVPPSASHVAPTETFTYEWTVPKEVGPTNADPVCLAKMYYSAVEPTKDIFTGLIGPMKICKKGSLHANGRQKDVDKEFYLFPTVFDENESLLLEDNIRMFTTAPDQVDKEDEDFQESNKMHSMNGFMYGNQPGLTMCKGDSVVWYLFSAGNEADVHGIYFSGNTYLWRGERRDTANLFPQTSLTLHMWPDTEGTFNVECLTTDHYTGGMKQKYTVNQCRRQSEDSTFYLGERTYYIAAVEVEWDYSPQREWEKELHHLQEQNVSNAFLDKGEFYIGSKYKKVVYRQYTDSTFRVPVERKAEEEHLGILGPQLHADVGDKVKIIFKNMATRPYSIHAHGVQTESSTVTPTLPGETLTYVWKIPERSGAGTEDSACIPWAYYSTVDQVKDLYSGLIGPLIVCRRPYLKVFNPRRKLEFALLFLVFDENESWYLDDNIKTYSDHPEKVNKDDEEFIESNKMHAINGRMFGNLQGLTMHVGDEVNWYLMGMGNEIDLHTVHFHGHSFQYKHRGVYSSDVFDIFPGTYQTLEMFPRTPGIWLLHCHVTDHIHAGMETTYTVLQNEDTKSG”, the “percentage of EdU-negative” value is 5.56 ± 0.7% with hTERT-HMEC (setting [1]), 7.89 ± 0.25% in the data set with hTERT-HMEC (setting [2]), 22.7 ± 3% in the data set with MCF7 (setting [1]) and 29.9 ± 0.94% with MCF7 (setting [2]).
For the substance “MIHTNLKKKFSCCVLVFLLFAVICVWKEKKKGSYYDSFKLQTKEFQVLKSLGKLAMGSDSQSVSSSSTQDPHRGRQTLGSLRGLAKAKPEASFQVWNKDSSSKNLIPRLQKIWKNYLSMNKYKVSYKGPGPGIKFSAEALRCHLRDHVNVSMVEVTDFPFNTSEWEGYLPKESIRTKAGPWGRCAVVSSAGSLKSSQLGREIDDHDAVLRFNGAPTANFQQDVGTKTTIRLMNSQLVTTEKRFLKDSLYNEGILIVWDPSVYHSDIPKWYQNPDYNFFNNYKTYRKLHPNQPFYILKPQMPWELWDILQEISPEEIQPNPPSSGMLGIIIMMTLCDQVDIYEFLPSKRKTDVCYYYQKFFDSACTMGAYHPLLYEKNLVKHLNQGTDEDIYLLGKATLPGFRTIHC”, the “percentage of EdU-negative” value in the data set on hTERT-HMEC (setting [3]) was found to be 4.71 ± 0.62%; in the data set on hTERT-HMEC (setting [4]) it was 4.48 ± 0.15%; in the data set on MCF7 (setting [3]) it was 23.7 ± 0.62%; in the data set on MCF7 (setting [4]) it was 26.3 ± 1.7%.
Take “MFFWCACCLMVAWRVSASDAEHCPELPPVDNSIFVAKEVEGQILGTYVCIKGYHLVGKKTLFCNASKEWDNTTTECRLGHCPDPVLVNGEFSSSGPVNVSDKITFMCNDHYILKGSNRSQCLEDHTWAPPFPICKSRDCDPPGNPVHGYFEGNNFTLGSTISYYCEDRYYLVGVQEQQCVDGEWSSALPVCKLIQEAPKPECEKALLAFQESKNLCEAMENFMQQLKESGMTMEELKYSLELKKAELKAKLL”: the “percentage of EdU-negative” value in the data set on hTERT-HMEC (setting [5]) was 5.33 ± 0.68%; in the data set on hTERT-HMEC (protein concentration 0.225 µM), 12 ± 1.5%; in the data set on MCF7 (setting [5]), 24.2 ± 1.2%; in the data set on MCF7 (protein concentration 0.225 µM), 27.8 ± 3.5%.
As to “MERMLPLLALGLLAAGFCPAVLCHPNSPLDEENLTQENQDRGTHVDLGLASANVDFAFSLYKQLVLKAPDKNVIFSPLSISTALAFLSLGAHNTTLTEILKGLKFNLTETSEAEIHQSFQHLLRTLNQSSDELQLSMGNAMFVKEQLSLLDRFTEDAKRLYGSEAFATDFQDSAAAKKLINDYVKNGTRGKITDLIKDLDSQTMMVLVNYIFFKAKWEMPFDPQDTHQSRFYLSKKKWVMVPMMSLHHLTIPYFRDEELSCTVVELKYTGNASALFILPDQDKMEEVEAMLLPETLKRWRDSLEFREIGELYLPKFSISRDYNLNDILLQLGIEEAFTSKADLSGITGARNLAVSQVVHKAVLDVFEEGTEASAATAVKITLLSALVETRTIVRFNRPFLMIIVPTDTQNIFFMSKVTNPKQA”, the “percentage of EdU-negative” value in the data set with hTERT-HMEC (setting [6]) stood at 4.76 ± 0.8%; in the data set on hTERT-HMEC (setting [7]), 9.51 ± 0.15%; with MCF7 (setting [6]), 24.5 ± 0.068%; in the data set on MCF7 (setting [7]), 28 ± 3.5%.
In the case of “MNWHLPLFLLASVTLPSICSHFNPLSLEELGSNTGIQVFNQIVKSRPHDNIVISPHGIASVLGMLQLGADGRTKKQLAMVMRYGVNGVGKILKKINKAIVSKKNKDIVTVANAVFVKNASEIEVPFVTRNKDVFQCEVRNVNFEDPASACDSINAWVKNETRDMIDNLLSPDLIDGVLTRLVLVNAVYFKGLWKSRFQPENTKKRTFVAADGKSYQVPMLAQLSVFRCGSTSAPNDLWYNFIELPYHGESISMLIALPTESSTPLSAIIPHISTKTIDSWMSIMVPKRVQVILPKFTAVAQTDLKEPLKVLGITDMFDSSKANFAKITTGSENLHVSHILQKAKIEVSEDGTKASAATTAILIARSSPPWFIVDRPFLFFIRHNPTGAVLFMGQINKP”, the “percentage of EdU-negative” value was found to be 4.86 ± 0.67% in the data set on hTERT-HMEC (setting [8]), 9.81 ± 1% in the data set with hTERT-HMEC (setting [9]), 26.98 ± 0.12% with MCF7 (setting [8]) and 27.93 ± 0.17% with MCF7 (setting [9]).
Turning to “MQWTSLLLLAGLFSLSQAQYEDDPHWWFHYLRSQQSTYYDPYDPYPYETYEPYPYGVDEGPAYTYGSPSPPDPRDCPQECDCPPNFPTAMYCDNRNLKYLPFVPSRMKYVYFQNNQITSIQEGVFDNATGLLWIALHGNQITSDKVGRKVFSKLRHLERLYLDHNNLTRMPGPLPRSLRELHLDHNQISRVPNNALEGLENLTALYLQHNEIQEVGSSMRGLRSLILLDLSYNHLRKVPDGLPSALEQLYMEHNNVYTVPDSYFRGAPKLLYVRLSHNSLTNNGLASNTFNSSSLLELDLSYNQLQKIPPVNTNLENLYLQGNRINEFSISSFCTVVDVVNFSKLQVLRLDGNEIKRSAMPADAPLCLRLASLIEI”, the “percentage of EdU-negative” value in the data set with hTERT-HMEC (setting [10]) amounted to 4.701 ± 0.032%; in the data set on hTERT-HMEC (protein concentration 0.155 µM), 5.63 ± 0.63%; in the data set on MCF7 (setting [10]), 25.8 ± 0.27%; in the data set on MCF7 (protein concentration 0.155 µM) it was 30.9 ± 1.2%.
Consider “MRLPLLLVFASVIPGAVLLLDTRQFLIYNEDHKRCVDAVSPSAVQTAACNQDAESQKFRWVSESQIMSVAFKLCLGVPSKTDWVAITLYACDSKSEFQKWECKNDTLLGIKGEDLFFNYGNRQEKNIMLYKGSGLWSRWKIYGTTDNLCSRGYEAMYTLLGNANGATCAFPFKFENKWYADCTSAGRSDGWLWCGTTTDYDTDKLFGYCPLKFEGSESLWNKDPLTSVSYQINSKSALTWHQARKSCQQQNAELLSITEIHEQTYLTGLTSSLTSGLWIGLNSLSFNSGWQWSDRSPFRYLNWLPGSPSAEPGKSCVSLNPGKNAKWENLECVQKLGYICKKGNTTLNSFVIPSESDVPTHCPSQWWPYAGHCYKIHRDEKKIQRDALTTCRKEGGDLTSIHTIEELDFIISQLGYEPNDELWIGLNDIKIQMYFEWSDGTPVTFTKWLRGEPSHENNRQEDCVVMKGKDGYWADRGCEWPLGYICKMKSRSQGPEIVEVEKGCRKGWKKHHFYCYMIGHTLSTFAEANQTCNNENAYLTTIEDRYEQAFLTSFVGLRPEKYFWTGLSDIQTKGTFQWTIEEEVRFTHWNSDMPGRKPGCVAMRTGIAGGLWDVLKCDEKAKFVCKHWAEGVTHPPKPTTTPEPKCPEDWGASSRTSLCFKLYAKGKHEKKTWFESRDFCRALGGDLASINNKEEQQTIWRLITASGSYHKLFWLGLTYGSPSEGFTWSDGSPVSYENWAYGEPNNYQNVEYCGELKGDPTMSWNDINCEHLNNWICQIQKGQTPKPEPTPAPQDNPPVTEDGWVIYKDYQYYFSKEKETMDNARAFCKRNFGDLVSIQSESEKKFLWKYVNRNDAQSAYFIGLLISLDKKFAWMDGSKVDYVSWATGEPNFANEDENCVTMYSNSGFWNDINCGYPNAFICQRHNSSINATTVMPTMPSVPSGCKEGWNFYSNKCFKIFGFMEEERKNWQEARKACIGFGGNLVSIQNEKEQAFLTYHMKDSTFSAWTGLNDVNSEHTFLWTDGRGVHYTNWGKGYPGGRRSSLSYEDADCVVIIGGASNEAGKWMDDTCDSKRGYICQTRSDPSLTNPPATIQTDGFVKYGKSSYSLMRQKFQWHEAETYCKLHNSLIASILDPYSNAFAWLQMETSNERVWIALNSNLTDNQYTWTDKWRVRYTNWAADEPKLKSACVYLDLDGYWKTAHCNESFYFLCKRSDEIPATEPPQLPGRCPESDHTAWIPFHGHCYYIESSYTRNWGQASLECLRMGSSLVSIESAAESSFLSYRVEPLKSKTNFWIGLFRNVEGTWLWINNSPVSFVNWNTGDPSGERNDCVALHASSGFWSNIHCSSYKGYICKRPKIIDAKPTHELLTTKADTRKMDPSKPSSNVAGVVIIVILLILTGAGLAAYFFYKKRRVHLPQEGAFENTLYFNSQSSPGTSDMKDLVGNIEQNEHSVI”, for which the “percentage of EdU-negative” value with hTERT-HMEC (protein concentration 0.007 µM) was determined as 4.48 ± 0.71%; in the data set with hTERT-HMEC (protein concentration 0.07 µM), 5.07 ± 0.13%; with MCF7 (protein concentration 0.007 µM), 24.1 ± 0.79%; with MCF7 (protein concentration 0.07 µM) it was 24 ± 0.4%.
Take Q9Y6N7: the “percentage of EdU-negative” value with hTERT-HMEC (setting [5]) was found to be 5.33 ± 0.86%; with hTERT-HMEC (protein concentration 0.225 µM), 5.81 ± 0.72%; in the data set with MCF7 (setting [5]), 27 ± 0.88%; with MCF7 (protein concentration 0.225 µM), 25.6 ± 1.4%.
On to “MWTLGRRAVAGLLASPSPAQAQTLTRVPRPAELAPLCGRRGLRTDIDATCTPRRASSNQRGLNQIWNVKKQSVYLMNLRKSGTLGHPGSLDETTYERLAEETLDSLAEFFEDLADKPYTFEDYDVSFGSGVLTVKLGGDLGTYVINKQTPNKQIWLSSPSSGPKRYDWTGKNWVYSHDGVSLHELLAAELTKALKTKLDLSSLAYSGKDA”, for which the “percentage of EdU-negative” value came to 4.76 ± 0.24% with hTERT-HMEC (setting [5]), 9.96 ± 1% in the data set on hTERT-HMEC (protein concentration 0.225 µM), 25.6 ± 0.72% in the data set on MCF7 (setting [5]) and 26.7 ± 4% in the data set with MCF7 (protein concentration 0.225 µM).

(Values after the supplement of paper PMC11316812.)
